Data set [1] concerns T1, NHS-Rhodamine labelled recombinant Tma17p (γ-subunit).
T1 sequence: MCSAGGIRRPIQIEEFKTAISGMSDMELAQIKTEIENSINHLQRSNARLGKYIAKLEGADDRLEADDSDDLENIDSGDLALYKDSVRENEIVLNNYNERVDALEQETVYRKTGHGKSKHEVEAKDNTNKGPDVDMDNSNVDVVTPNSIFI
The data set can be described thus: titration of NHS-Rhodamine labelled γ-subunit against ΔTma17p-FAS, native agarose gel, fluorescence of FAS-bound Tma17p quantified.

Data set [2] deals with Saccharomyces cerevisiae type I fatty acid synthase (α6β6, 2.6 MDa) without the γ-subunit (Saccharomyces cerevisiae) (UniProt P19097). Briefly: cell-based or functional assay.
Chain of UniProt P19097 (P19097 whole entry, chain 1 of 2): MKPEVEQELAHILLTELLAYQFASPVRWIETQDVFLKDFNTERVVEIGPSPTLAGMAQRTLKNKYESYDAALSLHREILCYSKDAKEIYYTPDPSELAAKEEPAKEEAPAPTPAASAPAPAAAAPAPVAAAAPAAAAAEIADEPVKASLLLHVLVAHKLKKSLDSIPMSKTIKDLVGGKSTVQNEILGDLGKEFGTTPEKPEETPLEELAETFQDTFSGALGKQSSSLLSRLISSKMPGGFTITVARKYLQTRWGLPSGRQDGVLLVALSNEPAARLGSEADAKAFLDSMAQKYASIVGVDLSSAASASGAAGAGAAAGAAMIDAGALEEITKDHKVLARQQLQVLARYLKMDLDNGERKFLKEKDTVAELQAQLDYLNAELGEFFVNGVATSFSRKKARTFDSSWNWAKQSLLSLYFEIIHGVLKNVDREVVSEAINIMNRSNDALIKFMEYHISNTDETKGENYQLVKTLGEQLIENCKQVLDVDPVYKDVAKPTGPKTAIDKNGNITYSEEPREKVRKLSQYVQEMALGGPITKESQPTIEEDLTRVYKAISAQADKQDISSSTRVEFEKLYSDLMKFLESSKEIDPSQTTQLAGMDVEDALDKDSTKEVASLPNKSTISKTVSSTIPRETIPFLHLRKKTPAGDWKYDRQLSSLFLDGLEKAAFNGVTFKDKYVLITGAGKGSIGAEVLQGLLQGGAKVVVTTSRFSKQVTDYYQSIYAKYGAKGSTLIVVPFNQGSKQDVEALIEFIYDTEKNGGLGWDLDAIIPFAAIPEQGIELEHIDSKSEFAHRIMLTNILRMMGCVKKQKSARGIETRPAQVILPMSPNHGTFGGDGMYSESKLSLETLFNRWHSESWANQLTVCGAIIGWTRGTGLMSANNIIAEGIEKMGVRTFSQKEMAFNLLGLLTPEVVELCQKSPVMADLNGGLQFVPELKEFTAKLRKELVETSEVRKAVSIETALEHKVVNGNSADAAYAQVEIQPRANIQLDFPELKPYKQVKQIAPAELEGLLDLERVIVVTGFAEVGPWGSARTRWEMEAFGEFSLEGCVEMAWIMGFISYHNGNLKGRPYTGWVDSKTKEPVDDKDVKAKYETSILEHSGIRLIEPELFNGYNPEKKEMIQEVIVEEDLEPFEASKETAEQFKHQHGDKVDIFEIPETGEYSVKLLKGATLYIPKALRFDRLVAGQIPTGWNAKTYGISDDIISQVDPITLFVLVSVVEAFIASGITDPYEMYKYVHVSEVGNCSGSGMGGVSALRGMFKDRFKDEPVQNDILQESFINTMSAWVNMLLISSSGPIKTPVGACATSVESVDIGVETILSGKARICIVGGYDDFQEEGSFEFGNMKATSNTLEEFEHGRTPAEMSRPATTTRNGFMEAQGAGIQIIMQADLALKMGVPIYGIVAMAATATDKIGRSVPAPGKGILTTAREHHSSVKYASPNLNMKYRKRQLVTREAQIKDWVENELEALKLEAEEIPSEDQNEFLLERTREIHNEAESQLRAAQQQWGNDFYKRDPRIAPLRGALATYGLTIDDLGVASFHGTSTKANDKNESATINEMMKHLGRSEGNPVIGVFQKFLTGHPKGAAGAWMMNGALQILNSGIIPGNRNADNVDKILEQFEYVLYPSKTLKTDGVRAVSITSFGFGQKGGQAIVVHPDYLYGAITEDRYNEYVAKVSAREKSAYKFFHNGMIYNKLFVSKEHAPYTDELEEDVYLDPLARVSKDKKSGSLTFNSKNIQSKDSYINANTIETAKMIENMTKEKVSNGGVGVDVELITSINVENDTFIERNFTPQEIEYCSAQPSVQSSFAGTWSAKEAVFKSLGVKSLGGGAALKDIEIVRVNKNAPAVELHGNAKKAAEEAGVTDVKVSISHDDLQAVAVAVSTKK
Chain of UniProt P19097 (P07149 whole entry, chain 2 of 2, further chain): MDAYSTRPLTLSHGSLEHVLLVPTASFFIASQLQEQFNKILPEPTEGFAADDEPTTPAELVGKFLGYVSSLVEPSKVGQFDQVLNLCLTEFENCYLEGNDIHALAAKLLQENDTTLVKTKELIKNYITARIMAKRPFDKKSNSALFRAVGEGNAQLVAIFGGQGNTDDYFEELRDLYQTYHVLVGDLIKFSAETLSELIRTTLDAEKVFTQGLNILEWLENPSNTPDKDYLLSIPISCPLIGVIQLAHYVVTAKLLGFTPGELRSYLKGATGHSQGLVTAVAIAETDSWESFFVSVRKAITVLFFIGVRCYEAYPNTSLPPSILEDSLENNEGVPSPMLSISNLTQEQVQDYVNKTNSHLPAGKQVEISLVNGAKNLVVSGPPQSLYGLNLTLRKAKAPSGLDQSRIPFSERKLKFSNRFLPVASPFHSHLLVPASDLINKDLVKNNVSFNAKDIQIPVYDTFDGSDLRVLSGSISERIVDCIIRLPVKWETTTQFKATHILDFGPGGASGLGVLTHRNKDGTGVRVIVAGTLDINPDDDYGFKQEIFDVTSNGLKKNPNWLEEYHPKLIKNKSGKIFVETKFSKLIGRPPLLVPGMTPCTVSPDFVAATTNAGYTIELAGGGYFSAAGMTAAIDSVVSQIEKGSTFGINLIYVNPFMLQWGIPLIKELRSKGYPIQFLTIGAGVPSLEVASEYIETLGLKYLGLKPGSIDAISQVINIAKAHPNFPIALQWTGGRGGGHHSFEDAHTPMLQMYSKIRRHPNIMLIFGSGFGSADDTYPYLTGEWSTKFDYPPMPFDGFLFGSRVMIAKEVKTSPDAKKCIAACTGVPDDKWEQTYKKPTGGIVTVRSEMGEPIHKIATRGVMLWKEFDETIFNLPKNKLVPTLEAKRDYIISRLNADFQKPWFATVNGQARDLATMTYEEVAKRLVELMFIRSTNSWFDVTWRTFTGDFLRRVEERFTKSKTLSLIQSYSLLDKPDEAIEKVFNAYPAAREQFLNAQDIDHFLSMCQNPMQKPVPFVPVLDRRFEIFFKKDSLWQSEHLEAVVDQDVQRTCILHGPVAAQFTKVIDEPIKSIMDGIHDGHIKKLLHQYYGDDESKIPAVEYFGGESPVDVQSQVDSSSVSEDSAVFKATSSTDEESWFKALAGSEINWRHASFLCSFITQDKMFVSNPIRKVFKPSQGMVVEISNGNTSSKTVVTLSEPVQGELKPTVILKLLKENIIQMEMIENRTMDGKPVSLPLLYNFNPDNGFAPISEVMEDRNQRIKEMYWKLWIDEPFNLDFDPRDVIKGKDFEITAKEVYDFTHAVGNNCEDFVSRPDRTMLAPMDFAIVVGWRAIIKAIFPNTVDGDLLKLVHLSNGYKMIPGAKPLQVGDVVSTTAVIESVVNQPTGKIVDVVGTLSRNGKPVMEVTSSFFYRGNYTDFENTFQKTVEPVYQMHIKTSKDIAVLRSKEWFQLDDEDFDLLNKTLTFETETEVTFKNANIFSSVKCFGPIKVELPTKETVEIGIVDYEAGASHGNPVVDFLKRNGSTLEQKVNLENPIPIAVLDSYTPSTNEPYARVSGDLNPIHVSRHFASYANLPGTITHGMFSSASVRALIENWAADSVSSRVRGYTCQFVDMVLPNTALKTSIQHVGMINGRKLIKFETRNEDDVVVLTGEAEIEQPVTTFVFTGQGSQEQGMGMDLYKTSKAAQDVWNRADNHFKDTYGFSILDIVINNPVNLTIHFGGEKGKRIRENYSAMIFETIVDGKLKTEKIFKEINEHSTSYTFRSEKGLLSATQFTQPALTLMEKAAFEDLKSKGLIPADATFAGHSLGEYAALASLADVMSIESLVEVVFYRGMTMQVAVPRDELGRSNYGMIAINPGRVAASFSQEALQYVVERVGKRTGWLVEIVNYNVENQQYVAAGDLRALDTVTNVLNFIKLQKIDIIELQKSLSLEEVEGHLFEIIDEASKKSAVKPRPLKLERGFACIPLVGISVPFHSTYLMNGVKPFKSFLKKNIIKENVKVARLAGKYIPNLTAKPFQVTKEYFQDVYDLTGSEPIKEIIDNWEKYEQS

Take “Saccharomyces cerevisiae type I fatty acid synthase (α6β6, 2.6 MDa) without the γ-subunit”: the “K0.5 (Hill equation)” value in data set [1] is given as “K0.5=2.1±0.2 µM”.

B1: Tma17p, the gamma-subunit of the yeast fatty acid synthase (TMA 17 molecule from Saccharomyces cerevisiae) (protein)
chain: MCSAGGIRRPIQIEEFKTAISGMSDMELAQIKTEIENSINHLQRSNARLGKYIAKLEGADDRLEADDSDDLENIDSGDLALYKDSVRENEIVLNNYNERVDALEQETVYRKTGHGKSKHEVEAKDNTNKGPDVDMDNSNVDVVTPNSIFI
For the molecule B1, in data set [2], the KMapp for NADPH, steady-state kinetics of the FAS holoenzyme (saturating γ-subunit) is 155 µM; the fold decrease of affinity for acetyl-CoA, steady-state kinetics amounted to 2 fold; the fold decrease of affinity for malonyl-CoA, steady-state kinetics worked out at 4 fold; the fold reduction in the binding affinity for NADPH, steady-state kinetics was 15 fold. In data set [2], the percent of selected cryo-EM particles in the rotated state, at a 6-fold excess of the γ-subunit was found to be 88% and the percent of selected cryo-EM particles in the rotated state, at a 12-fold molar excess of the γ-subunit turned out to be 95%.

Source of the values: patent US20220154181A1.
